Laboratory results: patent EP4596580A1 (Staidson (Beijing) Biopharmaceuticals Co., Ltd., dated 2025)
Where a chain is given by its changes, count along the chain named.

T1: His-cynomolgus monkey LIGHT (cynomolgus monkey)
T1 construct: also called His-cynoLIGHT
T1 chain: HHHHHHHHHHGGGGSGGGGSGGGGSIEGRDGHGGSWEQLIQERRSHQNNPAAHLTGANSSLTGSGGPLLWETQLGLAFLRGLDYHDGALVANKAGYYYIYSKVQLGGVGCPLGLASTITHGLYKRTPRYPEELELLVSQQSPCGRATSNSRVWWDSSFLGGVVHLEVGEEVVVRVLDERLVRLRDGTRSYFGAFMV

T2: His-human LIGHT (human)
T2 construct: also called His-huLIGHT; free LIGHT
T2 chain: T1 chain with H32P, G33A, Q47E, N48V, D83S, A91V, N92T, N149S, V167A

T3: His-mouse LIGHT (mouse)
T3 construct: also called His-musLIGHT
T3 chain: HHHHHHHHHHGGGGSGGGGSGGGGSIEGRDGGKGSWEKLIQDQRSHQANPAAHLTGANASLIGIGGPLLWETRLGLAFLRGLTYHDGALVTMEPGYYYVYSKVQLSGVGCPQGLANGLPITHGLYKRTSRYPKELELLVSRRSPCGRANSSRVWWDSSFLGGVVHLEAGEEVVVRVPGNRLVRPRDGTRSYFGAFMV

B1: hum_LT-m37-8 (antibody, human IgG4, V domains shown)
VH: QVQLVQSGAEVKKPGASVKVSCKASGYSFTGYFINWVRQAPGQGLEWIGRIYPYNVNTFYNQNFKGRVTMTADKSTSTAYMELSSLRSEDTAVYYCGRGTHYYGSSGAMDYWGQGTLVTVSS
VL: EIVMTQSPATLSVSPGERATLSCKASQNVGTAVAWYQQKPGQSPRLLIYSASNRYTGIPARFSGSGSGTEFTLTISSLQSEDFAVYFCQQYSSYPYTFGGGTKVEIK
notes: humanized from LT-m37
B2: hum_LT-m37-12 (antibody, human IgG4, V domains shown)
VH: B1 VH
VL: B1 VL with M4L, F87Y
notes: humanized from LT-m37
B3: hum_LT-m37-7 (antibody, human IgG4, V domains shown)
VH: B1 VH with V68A
VL: B1 VL
notes: humanized from LT-m37
B4: hum_LT-m37-9 (antibody, human IgG4, V domains shown)
VH: B1 VH with G44S, V68A, M70L
VL: B1 VL with M4L, F87Y
notes: humanized from LT-m37
B5: hum_LT-m37-11 (antibody, human IgG4, V domains shown)
VH: B1 VH with V68A
VL: B1 VL with M4L, F87Y
notes: humanized from LT-m37
B6: hum_LT-m37-3 (antibody, human IgG4, V domains shown)
VH: B1 VH with V68A
VL: B1 VL with M4L
notes: humanized from LT-m37
B7: hum_LT-m37-10 (antibody, human IgG4, V domains shown)
VH: B1 VH with V68A, M70L
VL: B1 VL with M4L, F87Y
notes: humanized from LT-m37
B8: LT-m64 (antibody, human IgG4, V domains shown)
VH: EVKLEESGAELVKPGASVRLSCKTSGYTFTNYYVYWVKQRPGQGLEWIGEINPTNGDPNFNEKFKSKATLTVDKSSSTAYMHLSSLTSEDSAVYYCTRSNWDYGNAMDFWGQGTSVTVSS
VL: DIVMTQSPASLAVSLGQRATISCKASQSVDFDGDGYMNWYQQKPGQPPKLLIYKASHLDSGIPARFSASGSGTDFTLNIHPVEEEDAATYYCQQSIEDPFTFGSGTKLEIK
B9: LT-m85 (antibody, human IgG4, V domains shown)
VH: EVQLQQSGAELVKPGASVKMSCKASGYTFTSYNVHWVKQTPGQGLEWIGAVYPGNGDTSYNQKFKGKATLTADKSSNTAYMQLSSLTSEDSAVYYCARGSYYYTSSYFDHWGQGTTLTVSS
VL: B8 VL with M4L, G35S, K54T, H57N, D59E, S67T, A68G, I96Y
B10: LT-m55 (antibody, human IgG4, V domains shown)
VH: EVQLQQSGAELVKPGASVKLSCKASGYTFATYYMYWVKQRPGQGLEWIGEINPTNGGTIFNEKFKTKATLTVDKSSSTAYMQLSSLTSEDSAVYYCARGNWPYWSFDVWGAGTSVTVSS
VL: B8 VL with M4L, G35N, K54A, H57N, F100W, S104G
B11: LT-m58 (antibody, human IgG4, V domains shown)
VH: QVQLQQSGAEMASPGASVTLSCKASGYTFIDHIMNWVKKRPGQGLEWIGRIYPVSGETNYNQKFMGKATFSVDRSSSTVYMVLNSLTSEDPAVYYCGRGSYYWNAMDYWGQGTTLTVSS
VL: B8 VL with G35S, K54S, H57N, D59E, A68G, F100W, S104G
B12: LT-m17 (antibody, human IgG4, V domains shown)
VH: QVQLQQSGPELVKPGASVKISCKASGYSFTGYFMNWVKQSHGKSLEWIGRIYPYSGDTFYNQKFNNKATLTVDKSSSTAHLELLSLTSEDSAVYYCGRSEHFGRNYGTGAVDYWGQGTSVTVSS
VL: DVVMTQTPLSLPVSLGDQASISCRSSQGLVHSNGNTYLHWYLQKPGQSPKLLIYKVSNRFSGVPDRFSGSGSGTDFTLKISRVEAEDLGIYFCSQSTHVPYTFGGGTKLEIK
B13: LT-m18 (antibody, V domains shown)
VH: B12 VH with Q1E, Q3K, Q5L, Q6E
VL: B12 VL with V2I, M4L, T7S, G28S, I90V, Y101L, G105D, K108R
B14: hum_LT-m85-5 (antibody, human IgG4, V domains shown)
VH: QVQLVQSGAEVKKPGASVKVSCKASGYTFTSYNVHWVRQAPGQGLEWIGAVYPGNGDTSYNQKFKGRATLTADKSTSTAYMELSSLRSEDTAVYYCARGSYYYTSSYFDHWGQGTLVTVSS
VL: DIVLTQSPDSLAVSLGERATINCKASQSVDFDGDSYMNWYQQKPGQPPKLLIYTASNLESGIPDRFSGSGSGTDFTLTISSLQAEDVAVYYCQQSYEDPFTFGQGTKVEIK
notes: humanized from LT-m85
B15: hum_LT-m85-8 (antibody, human IgG4, V domains shown)
VH: B14 VH
VL: B14 VL with L4M, I62V
notes: humanized from LT-m85
B16: hum_LT-m85-7 (antibody, human IgG4, V domains shown)
VH: B14 VH with A79V
VL: B14 VL
notes: humanized from LT-m85
B17: hum_LT-m85-9 (antibody, human IgG4, V domains shown)
VH: B14 VH with A79V
VL: B14 VL with L4M, I62V
notes: humanized from LT-m85
B18: hum_LT-m85-6 (antibody, human IgG4, V domains shown)
VH: B14 VH with I48M
VL: B14 VL
notes: humanized from LT-m85

target: T4, hFc-human LIGHT (human); test: competition ELISA, LTβR-His coated, hFc-huLIGHT added
T4 construct: also called hFc-huLIGHT

IC50	Binder
0.0676 nM	B1
0.0773 nM	B2
0.069 nM	B3
0.083 nM	B4
0.0864 nM	B5

Target: T1, His-cynomolgus monkey LIGHT
Test: ELISA, His-cynoLIGHT coated

EC50	Binder
0.0554 nM	B6
0.0449 nM	B1
0.053 nM	B2
0.0463 nM	B7
0.0474 nM	B3
0.0478 nM	B4
0.0494 nM	B5

Target: T2, His-human LIGHT
Test: ELISA, His-huLIGHT coated

EC50	Binder
0.0112 µg/mL	B8
0.0121 µg/mL	B9
0.0332 µg/mL	B10
0.0243 µg/mL	B11
0.0871 µg/mL	B12
0.0835 µg/mL	B13

Target: T2, His-human LIGHT
Test: cell-based or functional assay

IC50, HVEM NF-κB luciferase reporter (293T-HVEM-NF-κB-Luc), free LIGHT	Binder
0.264 µg/mL	B8
0.124 µg/mL	B9
0.264 µg/mL	B10
0.318 µg/mL	B11
0.184 µg/mL	B12

Target: T2, His-human LIGHT
Test: SPR, Biacore 8K, antibody on CM5 chip, human LIGHT

Kd	koff	kon	Binder
0.038 nM	4.86e-05 s⁻¹	1.28e+06 M⁻¹ s⁻¹	B1
0.0575 nM	6.75e-05 s⁻¹	1.18e+06 M⁻¹ s⁻¹	B2
0.041 nM	5.34e-05 s⁻¹	1.3e+06 M⁻¹ s⁻¹	B3
0.383 nM	8.03e-05 s⁻¹	210000 M⁻¹ s⁻¹	B4
0.062 nM	7.69e-05 s⁻¹	1.24e+06 M⁻¹ s⁻¹	B5

Target: T2, His-human LIGHT
Test: cell-based or functional assay
Remark: another data set of the same source

IC50, LTβR NF-κB luciferase reporter, free LIGHT	Binder
0.399 µg/mL	B6
0.17 µg/mL	B1
0.144 µg/mL	B2
0.153 µg/mL	B7
0.135 µg/mL	B3
0.227 µg/mL	B4
0.203 µg/mL	B5

target: LIGHT on the surface of HEK293-LIGHT stable cells (human, UniProt O43557 1-240); test: cell-based or functional assay

IC50, LTβR NF-κB luciferase reporter, HEK293-LIGHT cells	Binder
1.79 µg/mL	B6
3.22 µg/mL	B1
2.57 µg/mL	B2
4.46 µg/mL	B7
3.72 µg/mL	B3
3.86 µg/mL	B4
2.93 µg/mL	B5

Target: T2, His-human LIGHT
Test: ELISA, His-huLIGHT coated
Remark: another data set of the same source

EC50	Binder
0.0875 µg/mL	B6
0.0795 µg/mL	B1
0.0878 µg/mL	B2
0.0918 µg/mL	B7
0.0801 µg/mL	B3
0.0825 µg/mL	B4
0.0907 µg/mL	B5

Target: T3, His-mouse LIGHT
Test: ELISA, His-musLIGHT coated

binding result	Binder
no binding	B8
no binding	B9
no binding	B10
no binding	B11

Target: T2, His-human LIGHT
Test: ELISA, His-huLIGHT coated
Remark: another data set of the same source

EC50	Binder
0.0061 nM	B14
0.00951 nM	B15
0.00542 nM	B16
0.002 nM	B17
0.00479 nM	B18

Target: T2, His-human LIGHT
Test: cell-based or functional assay
Remark: another data set of the same source

IC50, HVEM NF-κB luciferase reporter, free LIGHT	Binder
0.0747 µg/mL	B6

target: T4, hFc-human LIGHT; test: competition ELISA, LTβR-His coated, hFc-huLIGHT added; remark: another data set of the same source

IC50	Binder
0.174 nM	B14
0.189 nM	B15
0.223 nM	B16
0.204 nM	B17
0.195 nM	B18

Target: T2, His-human LIGHT
Test: SPR, Biacore 8K, antibody on CM5 chip

Kd	koff	kon	Binder
0.0557 nM	5.61e-05 s⁻¹	1.01e+06 M⁻¹ s⁻¹	B8
0.0674 nM	5.28e-05 s⁻¹	783000 M⁻¹ s⁻¹	B9
0.0685 nM	6.01e-05 s⁻¹	877000 M⁻¹ s⁻¹	B10
0.0696 nM	2.67e-05 s⁻¹	385000 M⁻¹ s⁻¹	B11

Target: T1, His-cynomolgus monkey LIGHT
Test: SPR, Biacore 8K, antibody on CM5 chip

Kd	koff	kon	Binder
0.0487 nM	4.89e-05 s⁻¹	1e+06 M⁻¹ s⁻¹	B8
0.0601 nM	6.72e-05 s⁻¹	1.12e+06 M⁻¹ s⁻¹	B9
0.0613 nM	5.86e-05 s⁻¹	956000 M⁻¹ s⁻¹	B10
0.0347 nM	1.24e-05 s⁻¹	357000 M⁻¹ s⁻¹	B11
0.0582 nM	4.24e-06 s⁻¹	72700 M⁻¹ s⁻¹	B12
0.16 nM	1.26e-05 s⁻¹	79100 M⁻¹ s⁻¹	B13
